Assay results published in publication PMC6856136, “Topological DNA-binding of structural maintenance of chromosomes-like RecN promotes DNA double-strand break repair in Escherichia coli” (Communications Biology, 2019).

Molecular target: the molecule itself
Assay: SEC; gel filtration chromatography of purified His-RecN; single peak at a position indicating 308 kDa; column and buffer not told in the methods shown

B1: N-terminally hexahistidine-fused RecN (His-RecN), Escherichia coli (natural protein, E. coli, UniProt P05824 1-553, looked up)
chain: MLAQLTISNFAIVRELEIDFHSGMTVITGETGAGKSIAIDALGLCLGGRAEADMVRTGAARADLCARFSLKDTPAALRWLEENQLEDGHECLLRRVISSDGRSRGFINGTAVPLSQLRELGQLLIQIHGQHAHQLLTKPEHQKFLLDGYANETSLLQEMTARYQLWHQSCRDLAHHQQLSQERAARAELLQYQLKELNEFNPQPGEFEQIDEEYKRLANSGQLLTTSQNALALMADGEDANLQSQLYTAKQLVSELIGMDSKLSGVLDMLEEATIQIAEASDELRHYCDRLDLDPNRLFELEQRISKQISLARKHHVSPEALPQYYQSLLEEQQQLDDQADSQETLALAVTKHHQQALEIARALHQQRQQYAEELAQLITDSMHALSMPHGQFTIDVKFDEHHLGADGADRIEFRVTTNPGQPMQPIAKVASGGELSRIALAIQVITARKMETPALIFDEVDVGISGPTAAVVGKLLRQLGESTQVMCVTHLPQVAGCGHQHYFVSKETDGAMTETHMQSLNKKARLQELARLLGGSEVTRNTLANAKELLAA
notes: RecN, Escherichia coli; a fragment containing the recN gene from the pRecN plasmid cloned into pET15b; Copies: by gel filtration 'a homo-oligomeric complex, most likely a tetramer' (308 kDa); the discussion speaks of multimers larger than tetramers. pET15b may add linker residues between the His tag and RecN (surmised); also called E. coli RecN; source: E. coli BL21 (DE3), pET15b derivative, …
- stoichiometry N: ~4
